In article PMC2770089:

Target: Tat translocon (TatABC) in inverted membrane vesicles (E. coli) (UniProt P69428)
Experiment: co-sedimentation

Chain of Tat translocon (TatABC) in inverted membrane vesicles (E. coli) (P69428 whole entry, chain 1 of 3): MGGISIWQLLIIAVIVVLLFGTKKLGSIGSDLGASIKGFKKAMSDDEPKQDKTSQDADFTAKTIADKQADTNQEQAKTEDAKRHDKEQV
Chain of Tat translocon (TatABC) in inverted membrane vesicles (E. coli) (P69425 whole entry, chain 2 of 3, further chain): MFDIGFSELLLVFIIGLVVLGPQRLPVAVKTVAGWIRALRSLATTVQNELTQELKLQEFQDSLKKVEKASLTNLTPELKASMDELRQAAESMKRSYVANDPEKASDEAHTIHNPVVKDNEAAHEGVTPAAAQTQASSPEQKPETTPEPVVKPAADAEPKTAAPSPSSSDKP
Chain of Tat translocon (TatABC) in inverted membrane vesicles (E. coli) (P69423 whole entry, chain 3 of 3, further chain): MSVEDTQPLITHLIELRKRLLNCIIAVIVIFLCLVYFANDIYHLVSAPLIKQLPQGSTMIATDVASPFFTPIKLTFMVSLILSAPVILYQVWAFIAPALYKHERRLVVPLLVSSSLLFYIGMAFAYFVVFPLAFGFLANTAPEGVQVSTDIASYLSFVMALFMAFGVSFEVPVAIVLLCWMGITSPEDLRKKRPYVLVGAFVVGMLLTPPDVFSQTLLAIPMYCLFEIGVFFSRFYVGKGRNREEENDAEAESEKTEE

| Substance | percent decrease of precursor bound to the Tat machinery from 0.05 to 1 M KCl [%] | percent inhibition of translocon binding by 1 M urea [%] | amount bound to the Tat machinery (8.3 pmol added) [pmol] | amount of precursor added at which translocon binding saturates [pmol] |
| --- | --- | --- | --- | --- |
| pre-SufI (from UniProt P26648 28-470) (natural protein) | 35 | 75 |  |  |
| spTorA-GFP |  |  | 0.5 | 4 |
